Here are results for two molecules from patent US20230400471A1, “SYSTEMS, COMPOSITIONS AND METHODS OF DETERMINING VIABILITY OF EMBRYOS USING THE SAME” (BioIncept, LLC, priority 2020, published 2023).

One experiment has as its system PIF. Description: Surface plasmon resonance (SPR), captured Clone #30 with PIF as analyte. The format is binding, human. The conditions noted are these: PIF 2-fold concentration series up to 10 μM, duplicate. An excerpt:
(§1) The PIF-binding specificity of the rabbit monoclonal antibody Clone #30 described in Example 1 was quantitatively characterized by surface plasmon resonance (SPR). SPR is an optical technique for detecting the interaction of two different molecules in which one is mobile and one is fixed on a thin gold film. In SPR analysis, affinity-purified ligand polypeptides are immobilized on a sensor chip inserted into the flow chamber of an instrument, such as Biacore 3000 instrument (Biacore, Uppsala, Sweden). Addition of a second polypeptide, the flow-through analyte, to the chamber, results in binding to the immobilized polypeptide ligand, producing a small change in refractive index at the gold surface, which can be quantified with precision. Binding affinities can be obtained from the ratio of rate constants, yielding a straightforward characterization of protein-protein interaction.
(§2) In the work described here, purified rabbit monoclonal antibody Clone #30 was used as the ligand polypeptide and PIF in solution was used as the analyte to evaluate their binding affinity. To immobilize rabbit monoclonal antibody Clone #30 onto a chip, a sheep polyclonal anti-rabbit antibody was used. The sheep anti-rabbit antibody was amine coupled to a CM5 sensor chip using standard NHS/EDC activation. […]

The next experiment concerns scrambled PIF (SCR). Nature of the experiment: Surface plasmon resonance (SPR), captured Clone #30 with scrambled PIF as analyte. The experiment is classed as binding. To be noted: SCR 2-fold concentration series up to 10 μM, duplicate.
Excerpt: as §1, §2
For orientation: In SPR one partner is held on a chip, and binding of the other changes the refractive index at the surface.

Experiment [1] concerns the target T1, preimplantation factor (PIF), full-length 15-amino acid peptide (human). Description: SPR: Clone #30 captured (about 2000 RU) on sheep anti-rabbit antibody amine-coupled to a CM5 chip; PIF as analyte in a 2-fold series up to 10 µM; global 1:1 fit.
Experiment [2] concerns the target T1, preimplantation factor (PIF), …. Description: SPR, Clone #30 captured on sheep anti-rabbit CM5 chip, PIF as analyte, global 1:1 fit.
The target is the same in experiment [3]. Nature of the experiment: SPR: Clone #30 captured (about 2000 RU) on sheep anti-rabbit antibody amine-coupled to a CM5 chip; PIF as analyte in a 2-fold series up to 10 µM; global 1:1 fit. This is another data set of the same source.

B1: Clone #30: Rabbit monoclonal antibody against human PIF peptide; heavy chain SEQ ID NO: 2, light chain SEQ ID NO: 7 (antibody, listed as Homo sapiens)
heavy: METGLRWLLLVAVLKGVQCRSLEESGGRLVTPGTPLTLTCTVSGIDLSTYSMSWVRQAPGEGLEWIATINTGGSAYYANWAKGRFTISKTSTTVTLKMTSLTTEDTATYFCARTISADNLWGHGTLVTVSSGQPKAPSVFPLAPCCGDTPSSTVTLGCLVKGYLPEPVTVTWNSGTLTNGVRTFPSVRQSSGLYSLSSVVSVTSSSQPVTCNVAHPATNTKVDKTVAPSTCSKPTCPPPELLGGPSVFIFPPKPKDTLMISRTPEVTCVVVDVSQ
light: MDTRAPTQLLGLLLLWLPGATFAQVLTQTPSSVSAAVGSTVTISCQSSQSVYSDYLSWYQQKPGQPPKRLIYAAFTLASGVPSRFKGSGSEKQFTLTISDLECDDAATYYCAAIYSNDIWAFGGGTEVVVKGDPVAPTVLIFPPSADQVATGTVTIVCVANKYFPDVTVTWEVDGTTQTTGIENSKTPQNSADCTYNLSSTLTLTSTQYNSHKEYTCKVTQGTTSVVQSFNRGDC
Turning to B1, the “binding of PIF to Clone #30 by SPR” value in the experiment on PIF is “significant and concentration dependent binding response”. The Kd (as a rule, the free concentration of one partner at which half of the binding sites on the other are occupied at equilibrium, for simple one-to-one binding) on PIF (SPR, 1:1 interaction model) was approximately 15 nM. Further, in the experiment with scrambled PIF (SCR), the “binding of scrambled PIF (SCR) to Clone #30 by SPR” value was “no binding was observed”.

B2: rabbit monoclonal anti-PIF antibody Clone #30 (antibody, V domains shown)
VH: RSLEESGGRLVTPGTPLTLTCTVSGIDLSTYSMSWVRQAPGEGLEWIATINTGGSAYYANWAKGRFTISKTSTTVTLKMTSLTTEDTATYFCARTISADNLWGHGTLVTVSS
VL: QVLTQTPSSVSAAVGSTVTISCQSSQSVYSDYLSWYQQKPGQPPKRLIYAAFTLASGVPSRFKGSGSEKQFTLTISDLECDDAATYYCAAIYSNDIWAFGGGTEVVVK
Consider B2, for which the dissociation constant (Kd) turned out to be 10.7 nM in experiment [1], 15 nM in experiment [2] and 17.5 nM in experiment [3].
